Experiments:
Assay in all cases: cell-based or functional assay
[1] = molecular target: EGFP [GFP: P42212]
[2] = molecular target: ALFA-tagged GAL4-VP16
[3] = molecular target: mCherry

Substance: Gluc-biNIR-FbGFP fusion
- reduction of secreted Gluc signal with mTagBFP2 instead of EGFP (HeLa) [1]: 78%

Substance: NIR-FbmCherry-NbGFP fusion (bispecific antibody)
- reduction in EGFP fluorescence in the absence of mCherry [1]: 60%

Substance: biNIR-FbGFP-GAL4
- decrease of Gluc signal with mTagBFP2 instead of EGFP (GAL4/UAS reporter, HeLa) [1]: 50 fold

Substance: NIR-FbGFP-GAL4 fusion
- decrease of Gluc bioluminescent signal with mTagBFP2 instead of EGFP (GAL4/UAS reporter, HeLa) [1]: 25 fold
- reduction of mCherry reporter level in the absence of EGFP (pUAS-mCherry reporter) [1]: 3 fold

Substance: biNIR-FbGFP-NbALFA (bispecific antibody)
- reduction of Gluc signal in the absence of EGFP (ALFA-GAL4, pUAS-Gluc, HeLa) [2]: 85%

Substance: NIR-FbGFP-NbALFA (bispecific antibody)
- reduction of Gluc signal without EGFP against EGFP-expressing cells (ALFA-GAL4, pUAS-Gluc, HeLa) [2]: 75%

Substance: bispecific NIR-FbGFP-NIR-FbmCherry fusion (bispecific antibody)
- drop of NIR fluorescence when only EGFP (no mCherry) is co-expressed [3]: 10 fold
- drop of NIR fluorescence when only mCherry (no EGFP) is co-expressed [1]: 10 fold
